# Source: the DeepSol protein solubility set
# Assay: soluble on expression in E. coli; label from the status in PepcDB or PDB records
row,Sequence,soluble on expression in E. coli
1,MSLEKHKVDFYNIPIVDYLLSIGEPLESVGHNYYQHKHHDSLKINQRKNYFVWNSRSSEKNSRGGVVQYMQIMHNLSLQETLSKLSEDLDGKVLPAIPKKSYPKKFNYKVKEAIVPLETQRYLVAKRKIPNKIVRLFFSYDLISQNENNEVIFKWFKGDKVMGFSKQGTIPLTDEEKEKYHTKRDFFKYVAPTTEADTMWGFNYLSGEPKHIFFFESEIDLMSYYSIFEEELNETGNFWLISINGVAIEKVYSFFRYGIENLNLKETCQSLHVCFDNDIAGKQACNKLQHLEFKNIPFQNDLPKEFKDWNEVLQNKEGHHHHHH,soluble
2,MGSDKIHHHHHHNEKGGGTGSSSVGADTEPSVTGVHWTVDSVTVNGTTHQAPDGAHVEIAEDGRATGNYGCNSFHSTATFKGDRITLSRTLSTEMACEKRPMEFETTLARALAAGPLTAEAGQGKLTLTTAKGDRVHLTEEKDAPLYGTKWTVNSLIGGDVAQSLPAAADGKAWLTFTKKSESGDKKSGEKERGDKEVGTVSGSLGCNRVSAMATVRGSHITLGAPRTTRQMCSGSLMTTEKSLLKLFDSTVSYRIDHRAITLTSENGEGIGAIADR,not soluble
3,MFEKGIWLNEPRQWSVTDQRLTVITDPETDFWQQTHYGFCRDTGHFLGVSVKGEFTAQVHVQGDFKTLYDQAGLMVRVDERNWVKTGVEVSDGALMLGSVLTWGQSDWATGVFDDSSSGLWLRVTVAKGVMRIQHSSDGLRWPLLRLAAFPLSERYAVGAMCCSPERGGLKVVFSHFEVMPALGKDLHDLTLEHHHHHH,not soluble
4,AIANGTELRETLEDLIKEVVQASREALDTQGELNERNEAALRTLEAQWRQRLIEELHEQGSLRVVLCRTDLLVPGSGATGTTTTNRTDPLRYVYETLRQRDPRERRRSLPPERSSQSSELEDTGTDSGEALSSGDDDDEISQVAGQPEPETANYVLSQYERVLAPSTNKQRIWRVFLRDAMVHINGQDLLLNQLQCQFDW,soluble
5,MDNKIVYVVSDSVGETADLVVRAAMGQFPFAPDIRRVPYVEDTGTLKEVISIAKSNQALICFTLVKPDMRQYLVTEAAKEGVEAYDIIGPLIDQIEEITGQVPRYEPGVVRRLDEEYFKKIEAIEFAVKYDDGRDARGILKADIVLIGVSRTSKTPLSQYLAHNKRLKVANVPLVPEVDPPEELYQVAKEKCFGLKITPDKLNHIRKERLKSLGLSDGATYANINRIQEEIDHFEEVISRINCQVIDVSNKAIEETANIIVNAVQNQKMF,not soluble
6,MNHKVHHHHHHIDGRHHHHHHHIDGRHMQVSVETTQGLGRRVTITIAADSIETAVKSELVNVAKKVRIDGFRKGKVPMNIVAQRYGASVRQDVLGDLMSRNFIDAIIKEKINPAGAPTYVPGEYKLGEDFTYSVEFEVYPEVELQGLEAIEVEKPIVEVTDADVDGMLDTLRKQQATWKEKDGAVEAEDRVTIDFTGSVDGEEFEGGKASDFVLAMGQGRMIPGFEDGIKGHKAGEEFTIDVTFPEEYHAENLKGKAAKFAINLKKVEERELPELTAEFIKRFGVEDGSVEGLRAEVRKNMERELKSAIRNRVKSQAIEGLVKANDIDVPAALIDSEIDVLRRQAAQRFGGNEKQALELPRELFEEQAKRRVVVGLLLGEVIRTNELKADEERVKGLIEEMASAYEDPKEVIEFYSKNKELMDNMRNVALEEQAVEAVLAKAKVTEKETTFNELMNQQA,soluble
7,MDQAQRFLRQHPEHADLRIWGLNAFDPSQGNLLLPRLEWRRCGGKATLRLTLFSESSLQHDAIQAKEFIATLVSIKPLPGLHLTTTREQHWPDKTGWTQLIELATKTIAEGELDKVVLARATDLHFASPVNAAAMMAASRRLNLNCYHFYMAFDGENAFLGSSPERLWRRRDKALRTEALAGTVANHPDDKQAQQLGEWLMADDKNQRENMLVVEDICQRLQADTQTLDVLPPQVLRLRKVQHLRRCIWTSLNKADDVICLHQLQPTAAVAGLPRDLARQFIARHEPFTREWYAGSAGYLSLQQSEFCVSLRSAKISGNVVRLYAGAGIVRGSDPEQEWQEIDNKAAGLRTLLQME,not soluble
8,MAFSVAYDLIPNKLIKDIDEMNQWLHDKINRAVYLVGFATQQSDYEYKLYELFKALDELEERLKKQLFLFGNQLTESDLYLLATLERFDNIYFCLFKCSLKRIADYPALFRYHNQLRGMESLASTYQPVLTKEHYFMSTMHVLGLEHHHHHH,not soluble
9,RAVDNAEPAALETSTRTIPTNGRTMTPVQATYWVGRQPDYALGGIATRFYMEHDITIDGPMDEWIDALRRSWNTVVQRHGMLRATVDRDGKISIADTVTEHPLPVHNADHAAEVRERLAHRTADLGTWPVHDIELTTITATTVRIHCGFDVILIDYPSIMRVLNDWGRALAGYDLGTEDTSFSDLIAQGIAEPCPSDEAYWRERAPRLLPGPLDLAEMTYDAATTPEFHRHTRTIAAQQWKQFVDNAHAHGTNASSALLAVAAHSLRHVGPRRSFTLGATFFSPDVLEHGPVGDFTRTGVVELPDTADTFAQQASAAQHELWEAFDHASVTSADIMRWRNSDTTGQALPDYPVVFTSALGHGDSTDWPGVMTWGVSQTPQVLMDLLHWESDGDLVLAWDCVDAALPENFADNAIDIAYAVIQQLTNPAVWTDPTVVADPWLRMPGPMERIGESELIDAPLRA,not soluble
10,PYSSGVDENYYQDLRNRFNHGELYSADSIPSLGGKIFKTAGGREVYGGGGIIPDIFIPLDTAGLNSYMMKVEDSDLIPRYAFLYSDANRVSLSRFKTVEELGAYLDRTYLIFDFASFAQRYGIPMRTSLINEARNRIKKYINAYIAMNFFDLQGYYQLLLHDDPFILQAISLIKEGKTFPLIYDQKGTQSTDPAA,not soluble
11,MGSDKIHHHHHHMKAKHTDLEKLEQLYKESGNQLVVLYGRRGCQKEELIKEFCDGKKFFYYRCRQASPEHQLEMMGEEISRQYKVSLSRQTYEEYFARIKSGDPSKLVVIIDEAQFVAKRDTSFMEAVAKLKKHKLYPGPVLIILATSSTVWATQEASEQFKGAEMKLESLNFLEVVRHFESLPVAEIVRIYGAIGGVPAYLDKWDAAKSFKENICRLVLTPSGALYGEADAVISSELRELSAYSTILAAIARGENKLNDIFHATGFSRAKISVYLKNLATFNIVEKVVSFETGGWENAKKGVYQIKDTFVNFWFKFVYPNMSNLYLLSPEEFYDTYIEKELDAYLERYFREVCTEYLLILNQMGQLPFTIKRVGTWIGKTGRIDIVAQSEDRRSIIGFCNWDKPMMTMDMCENMAMAMDQARLTSDDYYLFSATDFEPALQSYVVRDPRFKLINMNEL,not soluble
12,MSERLSITPLGPYIGAQISGADLTRPLSDNQFEQLYHAVLRHQVVFLRDQAITPQQQRALAQRFGELHIHPVYPHAEGVDEIIVLDTHNDNPPDNDNWHTDVTFIETPPAGAILAAKELPSTGGDTLWTSGIAAYEALSVPFRQLLSGLRAEHDFRKSFPEYKYRKTEEEHQRWREAVAKNPPLLHPVVRTHPVSGKQALFVNEGFTTRIVDVSEKESEALLSFLFAHITKPEFQVRWRWQPNDIAIWDNRVTQHYANADYLPQRRIMHRATILGDKPFYRAGLEHHHHHH,soluble
13,MKQEFVAAIEIDGTGRIHVTPGESQFPYIYREAMEVSWNESTRSLHSPVPREWSYAQWLQQIFAAASEQGVKLVLGPNTRWVNVPNELRAELTHAAAA,soluble
14,MGSDKIHHHHHHMTLRISQLAQKFGLSRSTLLYYEKQGLIRGRRLDNGYRVYSENDLQRLILIQKLQAGGLTLKECLACLDARIDKALLQTRLAELDADIAQKQASRTLLAALLGEGDLKAWHESLTKEAPEAHLDWLQTQGFSEKEALHLTWLSKDMNEHDKFMADFMQIFSPLTRWAPGSEADTLKALASVPLTPTRILDIGCGKGLATRMLAKHTKASITAIDNEEDALTELQQHLQHRNLASRVSTLCASMTDIPLPAASADLIWAEGSAYIMGVEQALKSWRKLLVDNGVLVLSDLVWLTDDKAPEAVAFWQQDYPAMTSVEARMAQMQAAGFEVIDSFSLSNEAWKSFTGPLAARVDEVSEQLAGSQALANVQRELGIFSRFLGQFGYQFFVLQKRG,not soluble
15,MIKMTQSRLHAAQNALAKLHEHRGNTFYPHFHLAPPAGWMNDPNGLIWFNDRYHAFYQHHPMSEHWGPMHWGHATSDDMIHWQHEPIALALGDDNDKDGCFSGSAVDDNGVLSLIYTGHVWLDGAGNDDAIREVQCLATSRDGIHFEKQGVILTPPEGIMHFRDPKVWREADTWWMVVGAKDPGNTGQILLYRGSSLREWAFDRVLAHADAGESYMWECPDFFSLGDQHYLMFSPQGMNAEGYSYRNRFQSGVIPGMWSPGRLFAQSGHFTELDNGHDFYAPQSFLAKDGRRIVIGWMDMWESPMPSKREGWAGCMTLARELSESNGKLLQRPVHEAESLRQQHQSVSPRRISNKYVLQENAQAVEIQLQWALKNSDAEHYGLQLGTGMRLYIDNQSERLILWRYYPHENLDGYRSIPLPQRDTLALRIFIDTSSVEVFINDGEAVMSSRIYPQPEERELSLYASHGVAVLQHGALWLLGLEHHHHHH,soluble
16,TNGFLKILGLGSGHDDKDKLSSEELRTVVHEAGGLIPRRHQDMLISILDLEHVTVNDIMVPRSEITGIDINDDWKSISRQLTHSPHGRIVLYRDQIDEVVGMLRLRESYRLMLEKNEFTKETLLRAADEIYFIPEATPLNSQLLKFQRNKERIGLVVDEYGDIQGLITLEDILEEIVGEFT,not soluble
17,MGERIIPKNMKPMNGMLLEHLARYYFSTPYASGRVLDIACGTGYGSVMVAKTRKTEVDQVLGVDFDADVIHYAKQNYYHPKVSFLVGDAMDPYLRNQIGTFDTILSFETIEHVKDDRLFIERMRQLLKKDGTLVLSTPFGQGRGKPSDEPFHYHQLTEEEFRSLFDSFSEKEVFYQRGVTIEPKRTNVHYAFGVAVCKLEHHHHHH,not soluble
18,DLYFQGGSGMQCEEKLEVFENGFKDEKFNVEVKFYGNDARKVLLAMIYELYLPEYGREYVYPFECAKEFWNIYLEGEEIQDEEFQLKPIKFTSEQVIKKLQEEIKKIKPPLEIKIEEAKIYKTKEGYLAVGNYFILDPRGRLFIFNKPSIANKILKYIWKW,soluble
19,MKFVNFDEYKQLVDYFRNRLNPNYSSPTMLFIISITGMRASEAFGLVWDDIDFNNNTIKCRRTWNYRNKVGGFKKPKTDAGIRDIVIDDESMQLLKDFREQQKTLFESLGIKPIHDFVCYHPYRKIITLSALQNTLDHALKKLNISTPLTVHGLRHTHASVLLYHGVDIMTVSKRLGHASVAITQQTYIHIIKLEHHHHHH,not soluble
20,MQQEHRECIEQCYECAAACDICASSCLREDNVEMMKHCIQLDMQCAAICRLAAQFMALESEYSQKLCRLCADICKACAEECARHDHDHCQNCARACSQCADACLKMAALEHHHHHH,not soluble
21,MGSDKIHHHHHHMATKSLRRQDLEVHLGSTGQVVGRLYLGSGKRSAFSYDERWLRDARFFTLSPDLLPVLSVQHPQEVFFRALEDTAPDSWGERVIRRAHARLRQQDGETPPLEPVDFLMWVDDEARVGALRLFDPHAKVYLRSGATPGHVPPLVELDKVVQAARALEAGTETARDLQYLLGQGTSLGGARPKSSVRDTDGRLALGKFPSQADRRDVIRGEVLAMHLAAKAGIKVAAARVELIGGTAVAIIRRFDRTDDGGRIPYVSAATMLQSDGRDTVHAYTELVDVLLREGADPIADIHQLWRRLVLNFLICNTDDHLRNTGFLYDSRNHGWRLSPAFDLNPMPGDRRESKTWLTEDSGPIESRDMLMEGAPYFRLAAEEAAAIWTEVAQAVGSWRVVARGLGMQGTDLVDFEPAFA,not soluble
22,MTSVIPEQRNNPFYRDSATIASSDHTERGEWVTQAKCRNGDPDALFVRGAAQRRAAAICRHCPVAMQCCADALDNKVEFGVWGGLTERQRRALLRKKPHITNWAEYLAQGGEIAGV,not soluble
23,KYKLVFLGEQAVGKTSIITRFMYDTFDNNYQSTIGIDFLSKTLYLDEGPVRLQLWDTAGQERFRSLIPSYIRDSAAAIVVYDITNRQSFENTTKWIQDILNERGKDVIIALVGNKTDLGDLRKVTYEEGMQKAQEYNTMFHETSAKAGHNIKVLFKKTASKL,soluble
